Measured values: patent US20220403174A1, “METHOD FOR PREPARING COLORANT HAVING TARGET COLOR AND COLORANT” (Fudan University, priority 2021, published 2022)

Assay: stability of the structural color on a baked biscuit at high temperature
Type: physicochemical
Settings: 130-150° C.
Method: At block 902, a predetermined solution mixed with the submicron particles prepared from the predetermined material and the cuttlefish juice submicron particles is applied to a target object. The target object, for example, is food such as, but not limited to, various pastries and candies. For example, a mixture solution of the TiO2 submicron particles and cuttlefish juice submicron particles are added dropwise onto a surface of a biscuit.
At block 904, the target object is baked or frozen to evaporate or sublimate the predetermined solution such that the submicron particles prepared from the predetermined material and the cuttlefish juice submicron particles can be self-assembled into the amorphous photonic crystal structure on the target object, where the baking temperature is less than or equal to 250° C.
For example, when baked, the biscuit having drops of the mixture solution added onto the surface is dried with the increasing baking temperature. In the case, the submicron particles prepared from the predetermined material and the cuttlefish juice submicron particles are self-assembled to generate the structural color of the amorphous photonic crystal structure. The structural color is stable in the baked state at a high temperature (130-150° C.), and the legacy phycocyanin will fade at such high temperature. […]

phycocyanin
color stability in the baked state: will fade
